From PMC8175443, “In vitro assessment and phase I randomized clinical trial of anfibatide a snake venom derived anti-thrombotic agent targeting human platelet GPIbα” (Scientific Reports, 2021)

B1: anfibatide (natural protein)
chain 1: DVDCLPGWSAYDQSCYRVFKLLKTWDDAEKFCTERPKGGHLVSIESAGERDFVAQLVSENKQTDNVWLGLKIQSKGQQCSTEWTDGSSVSYENFSEYQSKKCFVLEKNTGFRTWLNLNCGSEYAFVCKSPP
chain 2: GFCCPLRWSSYEGHCYLVVKEKKTWDDAEKFCTEQRKGGHLVSVHSREEADFLVHLAYPILDLSLIWMGLSNMWNDCKREWSDGTKLDFKAWAKTSDCLIGKTDGDNQWLNMDCSKKHYFVCKFKL
notes: anfibatide (agkisacucetin) alpha-subunit, snaclec of Deinagkistrodon acutus venom; disulfide-linked to the beta-subunit; anfibatide (agkisacucetin) beta-subunit, snaclec of Deinagkistrodon acutus venom; disulfide-linked to the alpha-subunit; Disulfide-linked alpha-beta heterodimer; MALDI-TOF single peak at m/z 29,799.7; also called agkisacucetin

Key:
GPIbα (Homo sapiens) = GPIbα (Homo sapiens) (UniProt P07359); settings: cited from earlier work
[1] = target: T1, GPIbα on human washed platelets (human (endogenous in platelets), UniProt P07359 17-652); experiment: flow cytometry on cells; competition on human washed platelets (2 x 10^7/mL, modified Tyrode's buffer pH 7.4, room temperature, 30 min); ligand: BP-αFIIa at 80 nM with streptavidin-PE; anfibatide 0-200 nM added 5 min before; Ki by Cheng-Prusoff; settings: one partner purified
T1 construct: human platelet glycoprotein Ibα, endogenous on the platelet surface; also called platelet GPIbα; glycoprotein (GP) Ibα; source: endogenous, washed platelets of healthy human volunteers

[2] = target: T1, GPIbα on human washed platelets; experiment: flow cytometry on cells; competition on human washed platelets (2 x 10^7/mL, modified Tyrode's buffer pH 7.4, room temperature, 30 min); ligand: VWF A1 domain at 1.5 nM with FITC anti-VWF mAb; anfibatide 0-200 nM added 5 min before; Ki by Cheng-Prusoff; settings: one partner purified
[3] = target: T1, GPIbα on human washed platelets; experiment: flow cytometry on cells; competition on human washed platelets (2 x 10^7/mL, modified Tyrode's buffer pH 7.4, room temperature, 30 min); ligand: FITC-conjugated mAb LJ-Ib10 at 10 nM; anfibatide 0-200 nM added 5 min before; Ki by Cheng-Prusoff; settings: one partner purified
anfibatide = target: B1; experiment: SPR; GPIbαN-Long captured by immobilised anti-SV40 mAb LJ-3A2 on an HC200M chip; anfibatide injected at increasing concentrations, 75 μL/min for 3 min; Biacore 3000; 135 mM NaCl, 20 mM HEPES pH 7.4, 0.005% Tween 20; steady-state mass ratios fit to a one-site model; settings: both partners purified

## VWF (from UniProt P04275)
GPIbα (Homo sapiens)
  Kd: 1.5 nM

## B1
[1]
  Ki: 1.4 ± 0.1 nM
[2]
  Ki: 1.2 ± 0.5 nM
[3]
  Ki: 3.4 ± 1.1 nM

B2: GPIbαN-Long WT (domain or fragment)
chain: HPHPICEVSKVASHLEVNCDKRNLTALPPDLPKDTTILHLSENLLYTFSLATLMPYTRLTQLNLDRCELTKLQVDGTLPVLGTLDLSHNQLQSLPLLGQTLPALTVLDVSFNRLTSLPLGALRGLGELQELYLKGNELKTLPPGLLTPTPKLEKLSLANNNLTELPAGLLNGLENLDTLLLQENSLYTIPKGFFGSHLLPFAFLHGNPWLCNCEILYFRRWLQDNAENVYVWKQGVDVKAMTSNVASVQCDNSDKFPVYKYPGKGCPTLGDEGDTDLYDYYPEEDTEGDK
modifications: sulfotyrosine at 276, 278, 279 (post translational sulfation that normally occurs at these positions)
anfibatide
  Kd: 21 ± 0.9 nM

B3: GPIbαN-Long 3Y/F (domain or fragment)
chain: HPHPICEVSKVASHLEVNCDKRNLTALPPDLPKDTTILHLSENLLYTFSLATLMPYTRLTQLNLDRCELTKLQVDGTLPVLGTLDLSHNQLQSLPLLGQTLPALTVLDVSFNRLTSLPLGALRGLGELQELYLKGNELKTLPPGLLTPTPKLEKLSLANNNLTELPAGLLNGLENLDTLLLQENSLYTIPKGFFGSHLLPFAFLHGNPWLCNCEILYFRRWLQDNAENVYVWKQGVDVKAMTSNVASVQCDNSDKFPVYKYPGKGCPTLGDEGDTDLFDFFPEEDTEGDK
modifications: no Tyr sulfation at mature 276, 278, 279 (Tyr to Phe). Mature residue 1 = precursor 17 with no residue 0, so -2 = precursor 15. Disulfide-linked dimer through terminal Cys of the C-terminal …
anfibatide
  Kd: 90.5 ± 9.2 nM
